Experimental data published in US20250057968A1, “ANTI-DLL3 ANTIBODY AND PHARMACEUTICAL USE THEREOF, AND ANTIBODY-DRUG CONJUGATE CONTAINING ANTI-DLL3 ANTIBODY” (Jiangsu Hengrui Pharmaceuticals Co., Ltd., priority 2021, published 2025).

B1: Hu100 (antibody, human IgG1, kappa, V domains shown)
VH: EVQLVESGGGLVKPGGSLRLSCAASGFTFSDSGMHWIRQAPGKGLEWVSYISSGSSTIHYADTVKGRFTISRDNAKNSLYLQMNSLRAEDTAVYYCASPLYYYGRSYNAVAYWGQGTTVTVSS
VL: DIQMTQSPSSLSASVGDRVTITCHASQNINVWLSWYQQKPGKVPKLLIYKASDLHTGVPSRFSGSGSGTDFTLTISSLQPEDVATYYCQQGQSYPLTFGGGTKVEIKR
notes: also called hAb100L1H1
B2: Hu6 (antibody, human IgG1, kappa, V domains shown)
VH: EVQLVQSGSELKKPGASVKVSCKASGYTFTDYYMNWVRQAPGQGLEWMGIINPYSGVTIYNHKFKGRFALSVDKSSNTAYLQISSLKAEDTAVYYCARQDSLLDYAMDYWGQGTTVTVSS
VL: DIQMTQSPSSLSASVGDRVTITCHASQGISGNMGWLQQKPGKAPKGLIYHGANLEDGVPSRFSGSGSGADYTLTISSLQPEDFADYYCVQYAQFPYTFGGGTKVEIKR
notes: also called hAb6L4H12

Tests used:
[1] = biological target: T1, Human DLL3 full-length protein on cells (human, UniProt Q9NYJ7 27-618); assay: FACS on H1184 cells
T1 construct: H1184 and DMS53 express DLL3 themselves; The cell line is named under assay; also called H1184 cells; DLL3/H82
T1 sequence: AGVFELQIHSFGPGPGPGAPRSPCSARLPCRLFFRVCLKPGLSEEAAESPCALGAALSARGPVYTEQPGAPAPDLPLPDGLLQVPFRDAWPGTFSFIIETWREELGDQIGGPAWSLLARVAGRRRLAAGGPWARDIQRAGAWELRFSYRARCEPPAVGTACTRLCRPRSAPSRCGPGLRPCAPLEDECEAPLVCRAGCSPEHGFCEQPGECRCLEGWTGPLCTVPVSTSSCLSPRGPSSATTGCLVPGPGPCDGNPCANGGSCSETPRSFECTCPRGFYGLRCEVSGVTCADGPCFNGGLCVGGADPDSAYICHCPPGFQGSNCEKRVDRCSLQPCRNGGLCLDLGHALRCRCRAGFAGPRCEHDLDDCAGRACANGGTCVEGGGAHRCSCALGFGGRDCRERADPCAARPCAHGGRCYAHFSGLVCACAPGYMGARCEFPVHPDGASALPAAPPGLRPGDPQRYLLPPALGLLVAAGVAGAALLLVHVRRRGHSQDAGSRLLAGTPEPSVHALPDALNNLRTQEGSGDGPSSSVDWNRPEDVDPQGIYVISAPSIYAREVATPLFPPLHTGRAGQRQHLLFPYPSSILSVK
Experimental: (§1) Cells of the DLL3-expressing small cell lung cancer cell lines H1184 (ATCC, Cat. No. CRL-5858), DLL3/H82, cynoDLL3/CHO-s, and RatDLL3/CHO-s were suspended at 1×10^6/mL in FACS buffer (1% BSA+pH 7.4 PBS), and the cell suspensions were added to a 96-well round-bottom plate (Corning, 3795) at 100 μL/well. The plate was centrifuged at 300 g for 5 min, and the supernatant was removed. Different concentrations of test antibodies were added at 100 μL/well. The plate was incubated in the dark in a refrigerator at 4° C. for 1 h. After 3 washes by centrifugation at 300 g, working concentrations of APC anti-human IgG Fc (BioLegend, 410712) or PE F(ab′)2-goat anti-human IgG (invitrogen, H10104) were added. The plate was incubated in the dark in a refrigerator at 4° C. for 40 min. After 3 washes by centrifugation at 300 g, the geometric mean fluorescence intensity was measured on an Invitrogen flow cytometer, and the EC50 values of the antibodies in binding to DLL3-expressing cells were calculated.

[2] = biological target: T2, hDLL3(ECD)-strep twin, biotinylated (human, UniProt Q9NYJ7 27-492, biotinylated (site not stated)); assay: ELISA, biotinylated antigen on streptavidin plate
T2 construct: also called Biotinylated DLL3 antigen; Biotinylated DLL3-Strep
Experimental: Streptavidin (abcam, ab136200, 1 μg/mL) was plated at 100 μL/well, and the plate was incubated overnight at 4° C. The plate was washed 3 times with 250 μL of PBST solution (PBS containing 0.1% Tween 20) per well. The plate was blocked with 250 μL of 5% milk per well at 37° C. for 2 h. The plate was washed 3 times with 250 μL of PBST solution per well. Biotinylated DLL3 antigen (1 μg/mL) (SEQ ID NO: 9) was added, and the plate was incubated at 37° C. for 1 h. The plate was washed 3 times with 250 μL of PBST solution per well. […] The plate was washed 6 times with 250 μL of PBST solution per well. […] The plate was washed 6 times with 250 μL of PBST solution per well. TMB (KPL, 5120-0077) substrate solution was added at 100 μL/well, and color development was allowed at room temperature for 5-10 min. 1 M H₂SO₄ was added at 100 μL/well to stop the color development, and microplate reader (Molecular Devices, VERSA max) readings at 450 nm were taken.

[3] = biological target: T3, Cynomolgus monkey DLL3 full-length protein on CHO-s cells (cynomolgus monkey, UniProt Q9NYJ7 27-618 (human entry)); assay: FACS on cynoDLL3/CHO-s cells
T3 construct: also called cynoDLL3/CHO-s
T3 chain: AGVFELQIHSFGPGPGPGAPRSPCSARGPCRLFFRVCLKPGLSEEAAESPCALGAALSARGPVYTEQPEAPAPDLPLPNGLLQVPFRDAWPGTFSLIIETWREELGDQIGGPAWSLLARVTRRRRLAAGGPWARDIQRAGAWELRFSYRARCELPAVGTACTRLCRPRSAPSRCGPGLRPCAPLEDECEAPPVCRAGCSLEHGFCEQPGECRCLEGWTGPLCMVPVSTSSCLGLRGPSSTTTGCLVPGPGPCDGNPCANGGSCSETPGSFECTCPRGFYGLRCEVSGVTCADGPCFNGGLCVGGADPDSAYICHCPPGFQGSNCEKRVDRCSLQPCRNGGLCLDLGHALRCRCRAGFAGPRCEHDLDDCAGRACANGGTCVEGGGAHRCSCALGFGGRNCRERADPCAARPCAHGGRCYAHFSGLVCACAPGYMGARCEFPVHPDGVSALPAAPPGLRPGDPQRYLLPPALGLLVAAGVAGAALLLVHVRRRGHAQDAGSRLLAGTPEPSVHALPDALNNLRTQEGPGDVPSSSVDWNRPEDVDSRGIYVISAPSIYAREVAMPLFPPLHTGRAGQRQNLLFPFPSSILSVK
Experimental: as §1

[4] = biological target: T4, Human DLL4 full-length protein on CHO-s cells (human, UniProt Q9NR61 27-685); assay: FACS on human DLL4/CHO-s cells
T4 construct: also called human DLL4/CHO-s
Experimental: Stably transfected human DLL1/CHO-s and human DLL4/CHO-s cells were suspended at 1×10⁶/mL in FACS buffer (containing 1% BSA and pH 7.4 PBS), and the cell suspensions were added to a 96-well round-bottom plate (Corning, 3795) at 100 µL/well. The plate was centrifuged at 300 g for 5 min, and the supernatant was removed. Test antibodies were added at 100 μL/well, and the plate was incubated in the dark in a refrigerator at 4° C. for 1 h. After 3 washes by centrifugation at 300 g, working concentrations of PE F(ab′)2-goat anti-human IgG Fc secondary antibody (invitrogen, H10104) were added. The plate was incubated in the dark in a refrigerator at 4° C. for 40 min. After 3 washes by centrifugation at 300 g, the geometric mean fluorescence intensity was measured on an Invitrogen flow cytometer.

T4 sequence (Q9NR61 27-685 limits assumed): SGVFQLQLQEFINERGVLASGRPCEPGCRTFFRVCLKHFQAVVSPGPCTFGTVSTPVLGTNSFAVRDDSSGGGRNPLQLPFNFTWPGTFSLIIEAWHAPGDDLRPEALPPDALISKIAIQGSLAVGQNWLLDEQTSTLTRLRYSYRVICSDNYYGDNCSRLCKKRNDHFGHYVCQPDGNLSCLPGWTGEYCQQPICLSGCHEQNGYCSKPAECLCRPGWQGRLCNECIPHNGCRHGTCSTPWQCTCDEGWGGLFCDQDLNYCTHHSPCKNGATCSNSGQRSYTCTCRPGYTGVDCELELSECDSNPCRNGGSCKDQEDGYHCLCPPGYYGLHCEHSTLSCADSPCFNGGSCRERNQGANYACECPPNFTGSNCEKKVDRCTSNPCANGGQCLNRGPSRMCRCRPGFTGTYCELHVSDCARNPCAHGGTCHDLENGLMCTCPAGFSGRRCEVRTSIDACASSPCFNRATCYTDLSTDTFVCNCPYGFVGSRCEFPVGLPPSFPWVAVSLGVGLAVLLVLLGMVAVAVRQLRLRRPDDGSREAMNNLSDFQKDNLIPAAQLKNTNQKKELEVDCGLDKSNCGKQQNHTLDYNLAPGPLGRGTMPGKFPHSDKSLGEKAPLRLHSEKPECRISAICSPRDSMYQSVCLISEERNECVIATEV

| Binder | EC50 [1] [pM] | Emax [1] | EC50 [2] [pM] | EC50 [3] [pM] | Emax [3] | binding result [4] |
| --- | --- | --- | --- | --- | --- | --- |
| B1 | 150 | 2110 | 50 | 550 | 2080 | no binding |
| B2 | 60 | 2070 | 40 | 320 | 1760 | no binding |
